The text below walks through data of the DeepSol protein solubility set.

The data set in a line: soluble on expression in E. coli; label from the status in PepcDB or PDB records.
Take “MLIDTDFFLSNRSDSLVLDVRSPEEYRRGHIPGAESFPLFSDAERAEVGTLYVRHSRQAAVERGLEFVGPRMAEMVREARSLAAGRDIILYCWRGGMRSESVAWLLSVAGLRIRRLRGGYKAYRRHFPDILKLYPWRFIVLGGYTGSGKTPILNELTQMGEQVIDLEGLAHHKGSAFGALGQEQQPTTEHFMNLLHDALSACDPNRPIWVESESKTIGRVFLPDDFYKVMRQAPLIELSVPRPVRIAHIAKEYGVYDAEALANSFEHIARRMGGAATTQAITALKEGRLEEAVSLALDYYDKAYAHSLAEFRESSSARLAVETDTPHETAIKLLELSHIKGLQS”: the “soluble on expression in E. coli” value is on record as “not soluble”.
The entry for KSCCSCCPAGCEKCAKDCVCKGEEGAKAEAEKCSCCQ is “soluble”.
The entry for “MGSDKIHHHHHHMLWYDSRAQRLRERSAVWAQNQKTDPDFDGLPPKYAEELQKNILGTVVLPGDPEYDTDRMLSNPRFSAYPQVIVYCEVETDVAECLRVARALSMAVVVRSGGHSTAGFSSQNGFLIDVSRMNDVCISPEALRAWVGPGTNFGKFNAKLLPYDLHTPGGACPDVCVGGYMQGGGYGFTARIFGMNCDQVEEIRVMMTDGRIVHANAELNPDLFWAVRGGTGSNFGVLLGVKYRLYRGSTFAGFSVRWSMQTDAGVQDTATSLAWLQENFMRTGAPDTMGYQMIWAFEGPEGQAKEPVLLMRGMYRGTREELQEKLAPVLALPGATLQAIYDPQQYIDLNRILLSEPYEVPEFPADMTPMPPPEAKISRYVAKPIDAAGWKALLDYFRTSPSPYTIAAMEIYGGAIARMPKGENAFFHRDVYCDLFFDVFWLTEQEKETMLAFIAGWEAAFAPHWTGQSYQNYPSPDNPGFADEYWGDTYWLLRLIKHKYDPINLLRFPQSIQPLEWHPPGPGFPPGFRGFEDPIQAIAG” is “not soluble”; for “MGHHHHHHSHMAATSGTDEPVSGELVSVAHALSLPAESYGNDPDIEMAWAMRAMQHAEVYYKLISSVDPQFLKLTKVDDQIYSEFRKNFETLRIDVLDPEELKSESAKEKWRPFCLKFNGIVEDFNYGTLLRLDCSQGYTEENTIFAPRIQFFAIEIARNREGYNKAVYISVQDKEGEKGVNNGGEKRADSGEEENTKNGGEKGADSGEEKEEGINREDKTDKGGEKGKEADKEINKSGEKAM” it is “not soluble”; for “MAHHHHHHMLNKGFTATKIIGKRCFQWWDNLNTSWKFAIGFSVLFPPLWNYNERRKAREKQVYYNKSIRDYVFFDIAIENKYVGRVLIGLYSDQVPLSVENFIQLAEGYKVKDKYIGYRNTFIHKIYPGIGLVGGNVLNDKEGLSIYGKKFPDENFDMEFVQDGDVALFNEGPHSNSSQFIITFSPMPILHKHNVVIGTVLKGMDIIRMIENVGTKLGNPMYNVKIINCGLYRSLEQDGPPFFNMMHISDKGNKNIISKKEFESLSEQQRQSLMEEIGKSEKRR” it is “soluble”.
To “MAQQHNDWADITSLDTFPKVLQHNAKHWPEQVAMREKEFGIWREFTWQDYENRVKWMALALQDLGIGEQDVVGLLGDNRPEWVWGELAAHAIKGYSLGIYQDSMHEEVAYLINYAKAKVVIAEDEEQCDKLLELGDEIPSVEYIIYCDPRGMRKYDDPRLIDVEQVYKKGQLIDKADPDKYLNMVAATKGSDLSILCTTSGTTSKPKLAQLHSGTFLDHCAAYLRADPRSPGDNYVSVLPLPWIMEQVYVVGQALISRQIVNFVEEQETMMSDLREIGPNFVLLAPRVWENIVADVSARMMDSTPFKQKMYKLGMSLANKALDQGKRSKLAEWILLRA” belongs “not soluble”; to “MGSDKIHHHHHHMSQSKPLFPLNAWYAVAWDHEVKHALTPRKLCNLDVVLYRTTAGAVVALEDACWHRLVPLSMGKLRGDDVVCGYHGLVYNAQGRCVHMPSQETINPSACVRGFPVAEKHRYVWVWPGDPAQADVALIPDLHWSHDPAWAGDGRTIHAKCDYRLVLDNLMDLTHETFVHGSSIGQDEVAEAPFEVVHGDRTVTVSRWMHNIDPPPFWAGQIARHLNYHGKVDRWQIIHFEAPGTIAIDVGVAITGTGAPQGDRSQGVNGFVLNTITPETDTTCHYFWAFMRNYALHDQSLTTLTREGVTGVFGEDEAVLEAQQRAIEAHPDHAFYNLNVDAGGMWARRVIDRLIAREQRAGDLSLRMVG”, “not soluble”.
Consider “MDEVGVASEHLPDLRDRTGHAVNLAVWGDHGPVLVRWDYGAHALPITIRVGATMPLLTSAIGRVYLAHLPATMTTSIVETELETLGTNAPSKSDVARLRATVLEQGVATISGEVIPGVMSVAAPVFPAGQSIPLAVAVALPSSLGDTATVAEVTLELLRTTKAISEDYGSVGGAAGGPIA”, for which the “soluble on expression in E. coli” value is “not soluble”.
To “MPVFRRHASQNCASIPPMMLFKRPDTETLYFALVNKDPAYEGVAYVCVTSTKIFCRFTCTARKPKIENCRFRETITECLEAGFRPCKRCKPMLSYGTPDGTVTALLTALENEPARRWREEDVVALGHDPSTVRRSFKRRFGMSFLEIARLRRVGDAAESLASGEAVIGAQIDAGYESGSGFRSAINQLFGTSPAAMKGRGFLKGDWIDTPIGPMLAVADDHALHLLEFADRPALPAELKRLKARTGADMVLGRTAVTGQIAAELAAYFAGRSGSFETRLAGHGTPFERDVWRNLREIPAGEIVSYSSLATAMERPTAVRAVARANGANQLAIVVPCHRVLGADGSLTGYGGGLWRKKWLIEHERRMARGQMLGMPLASLEHHHHHH” belongs “not soluble”; to “MEYGIVYLLTNPVMPGLVKIGMTTQEGIDKRMKELYTTGVPIPFECKFACKVKKSDCLKIEKALHKAFDPQRINQNREFFRINVEQAQAILELFHHEDVTEEVTDEIQNDLTDEDKAASTKAQAKRPPLNFYEMGLQKGDILIWKDDPSISVTVLSERKVCYEGEETSISALSAKLKGYKVKHIQPTPHWFFNDRSLSEIYDETYPFEE”, “not soluble”; to “MGSDKIHHHHHHMNWLLNISTHGSDLEIAGPEWSEAVSLLRRTGMDGFELYPAGAYDCTAIPKEIVGGVHLRFFVMLRQIWQNDREGLLRMFGSEQTVRHYYSGVNREAVISCYRSQLELAARFNVPYVVFHPVHYELEYVFNWQPPWGWRETVDLSTEIINEVVRDTPYDGWILFENLWWPGNFRLDSTDEIDRLLSKVRWPKCGIVLDTAHILNKNQELRTEEEAIAFLLRQVERLGDYRQLIKAVHLSKSLSGEAAKAGFANADPFCGAHDFWQRFSIALRHVRDLDRHEPFSHSMLGELFDLIEPDNVVFELAFSSLDEWIGKIEQQQRALQRFFPECRIKENLY”, “not soluble”.
The entry for “MGSDKIHHHHHHMPLLDIRNLTIELDTPHGRVKALEKVSLMLHAGEIHGLVGESGSGRSLLARAVLGIPGPNWTITADRMMWDGRNLMEMSDVERRNLMGKDMAMIFQDPSGSLDPVITIGAQLIEAMPADKNVPFWRRGRERRLTAQKWLHKVGIKDPKRVMASYPWETSEGECQKVMIAMALANQPRLLIADEPTNSMEPSTQAQIFRLLAQLNQLQGVTIMMISHELETLADWCNNLTVLYCGQVMESGPIDELIREPLHPYTKALMDHLPDYRGNLPHKSLMPVLPGSAPALQHLPIGCRLGPRCPEARRECVHQPQLQHQKDRYYACHFPYRTETNNDDTAA” is “not soluble”; for “MGSDKIHHHHHHADVRMPLIFGDHMVLQQDTKIAIFGWADAGETVEVVFAGQKVKTTADTDGTWRVNLKPIKTKKEGQTLTIAGKNKLVYSDVLVGDVWVASGQSNMEWGIKVRKEYADDISASEDPLLRLFFVPKNTSLEPLTDIEVPQGTSNPERAARWVLCTPEMLAKINGQGFSATAYYFARDMRAANGRPLGVIQSAWGGTRAEAWTSLSGLKQEPALAHYVAAYEKNVKDNPEILATYPQKQKEFDEAVREWDKTVGKEWNQAQKEWAIAVQAAQAAGKPAPPKPQPSVPRPPNPRKPNGGNNGPSNLFNAMISPLIPLSIKGVIWYQGEFNSGGSGKEYATLFSRMITDWREKWGIGDFPFVYVQLPNFEPVDPEPSVEGNGWRWVREGQLKALNLPNTAMAVTIDVGDPFDLHPVDKYDVGHRLALAARKLAYGEKIVGMGPLYKKMSVKGNKIILEFTNQGKKLVMGTSPYIPAGKPPHPKPTKLTGFGIAGADRKFVWADAVIEGNKVIVSSSEVAVPLAVRYGFSNSPRCNLYNEKGLPASPFRTDSWDK” it is “not soluble”.
Turning to “MGHHHHHHSHMRKIDLCLSSEGSEVILATSSDEKHPPENIIDGNPETFWTTTGMFPQEFIICFHKHVRIERLVIQSYFVQTLKIEKSTSKEPVDFEQWIEKDLVHTEGQLQNEEIVAHGSATYLRFIIVSAFDHFASVHSVSAEGTVVSNLSS”, the “soluble on expression in E. coli” value is listed as “soluble”.
The entry for “MSLKKILILFFSIILSLGMVSCSSSGDYKNVSTSKIKKALKSSDLLIKESKIFDAKDFNYFNDVEEDIIQGFVINSSEKLSLEDIIVIKTDEVDKIYKTLENYKKDMIQAPFGEGHGEKINSEIANNTIIEKAGRYVYLISAENATQIENKILNIIKEGHHHHHH” is “soluble”; for “DGDRLRQFLENNKKVLRFWCVWDERTTMYGDRRPYVLHYYLEDDSVEVLEINENNSGRDPFPVFLKRGPLPKVAVKTNTTLNPKFRKDQCYNAGDFRLGLFINVLGRDFYLHDADTFTKQWYKDNLGYTDEE” it is “not soluble”; for “MSTIPSEIINWTILNEIISMDDDDSDFSKGLIIQFIDQAQTTFAQMQRQLDGEKNLTELDNLGHFLKGSSAALGLQRIAWVCERIQNLGRKMEHFFPNKTELVNTLSDKSIINGINIDEDDEEIKIQVDDKDENSIYLILIAKALNQSRLEFKLARIELSKYYNTNLH” it is “soluble”.
To “MEYSYIPSAALYNNADIFQFFPRNKRLNSHQKSRLDEHARKMAAFMMERQEEYRYYENLANQEQFSDDNGMESGFCSGATSTGQSASTSPAPVQLIPNPFFDPEYVAAKTQSPVKLVTNPFFNPELVEEIKKKSQKRNEKSAPVSA” belongs “not soluble”; to “MGSDKIHHHHHHMIKFLYFTDTHIRGTAPKNRLDPFVETLKHKLHEVMEIAETEKVDMLLHGGDVFDRPDLSPNVVGQFAQIFRKTSRPIYAIAGNHDTFGHNPETISRTMLGLLHSFGIIHIIDPQTPVLVEKDGVKVQISGQPYHYDIDQRDPKLDYYPVNVHEADVMVHLVHSMLVEKALPEGIPHTLIDHIWGTSADVLLTGHFHGGFGIKQKDGRYICNPGAIARINNHWTELVRTPTVILGTITKDGIDLKERPLQSAKNGEEVLDRSFLEKSINQEEKLHAFIQQVKEHAEFQSLNMNDVINEIAAMSNVEEPVKQEALRRITVIEEAWKGGEHEYD”, “not soluble”.
To “MSLTDASFPALPPPLVSLGDLAWDVLAKPDTLLLPGGDTTGRLELSGGGSAANLAVWAARLGAPTTFVGKIGQDRFGELATAELRAEGVRAEVLASAAHPTGVILALIDRRGQRAMLTGQGADWELLPEELPRDVLSSAGHLHLTAWSLFRDPPRAAALEAARIAKAGGATLSLDPGSFQMIQQLGREAFLNIVDALPFDVMFPNDDEARAMSGERDNEAALTWLRARYPRALIALKMDEDGALIEGPQTARVQVPATRDPLVDATGAGDAFGGAFLSQWLRHHDAERAARVAVQVGGWVVSRFGARPPADPDLTRRLASVGADLLTPDPAAAPDPSQDSPEVNEGHHHHHH” belongs “soluble”; to “MVQESIISSFRGKLENDPSKSTSLATVETLLEVLDRSRATTVAEFQNELNQVVAALEKTDYSSTSIRSAADLFTRFTSLAPAALLDQEDFSQVLDLYRQRARSFIKNVRGSRAKISKCARLFFTHHMNILTHSYSKVVLETILDAHKSGYHLHVWVTESQPDASGKLVFEELKKNGVPTTLVLDSCVGYVMERIQAVLVGAEGVMETGGIINKIGTVNVCIIAKSRHVPVYVCAETIKFVREFPLNQADIPQEFKYRTSVIERNNLELEHPDVDYTAPEFLTLIITDVGAMKPEAVGEELIKMYI”, “not soluble”.
